Measured values taken from the supplement of paper PMC7877785.
± gives the uncertainty stated by the source.

Test: self-splicing fitness, log relative to wild type (ln ratio); higher = more splicing; Tetrahymena group I intron in knt gene, E. coli kanamycin selection, DiMSum; sequences stand for … in CUCUCU…GGAGGGAAAAGUUAUCAGGCAUGCACCUGGUAGCUAGUCUUUAAACCAAUAGAUUGCAUCGGUUUAAAAGGCAAGACCGUCAAAUUGCGGGAAAGGGGUCAACAGCCGUUCAGUACCAAGUCUCAGGGGAAACUUUGAGAUGGCCUUGCAAAGGGUAUGGUAAUAAGCUGACGGACAUGGUCCUAACCACGCAGCCAAGUCCUAAGUCAACAGAUCUUCUGUUGAUAUGGAUGCAGUUCACAGACUAAAUGUCGGUCGGGGAAGAUGUAUUCUUCUCAUAAGAUAUAGUCGGACCUCUCCUUAAUGGGAGCUAGCGGAUGAAGUGAUGCAACACUGGAGCCGCUGGGAACUAAUUUGUAUGCGAAAGUAUAUUGAUUAGUUUUGGAGUACUCGUGGUCG
Outline: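 Six replicate transformations of E. coli BL21(DE3) with a pET-22b(+) library were grown overnight at 37°C or 30°C. The library randomised all eight P1ex-region intron nucleotides, the intron lying in the knt kanamycin-resistance gene, and plates were LB agar with or without 25 μg/mL kanamycin plus 100 μg/mL carbenicillin, 50 μM IPTG and 0.2% rhamnose. Pooled colonies were amplicon-sequenced on an Illumina HiSeq 2500, and fitness is the DiMSum error-weighted combination of wild-type-normalised replicate fold changes, kanamycin versus none.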

Sequence	self-splicing fitness (ln) (30 °C)	self-splicing fitness (ln) (37 °C)
GCCCAGCAAUAUUACGAAGU	-0.333 ± 0.054	0.22 ± 0.069
UGAAAGCAAUAUUACGCAAG	-2.4 ± 0.15	-2 ± 0.2
UGACAGCAAUAUUACGAUGA	-0.596 ± 0.068	-0.119 ± 0.082
AGUGAGCAAUAUUACGCGAG	-2.91 ± 0.49	–
GGCAAGCAAUAUUACGAGAU	-2.56 ± 0.21	-0.168 ± 0.15
ACUCAGCAAUAUUACGAAGC	-1.99 ± 0.19	-1.46 ± 0.16
UUGGAGCAAUAUUACGCGUC	-4.81 ± 0.29	-2.77 ± 0.24
GGUCAGCAAUAUUACGAACU	-0.446 ± 0.25	-1.74 ± 0.21
UAUGAGCAAUAUUACGUCUG	-0.9 ± 0.13	-0.416 ± 0.15
UAUUAGCAAUAUUACGCUGU	-2.57 ± 0.23	0.0696 ± 0.22
UCUUAGCAAUAUUACGCAUA	-2.4 ± 0.26	-1.47 ± 0.22
UAAUAGCAAUAUUACGGUGU	-2.98 ± 0.21	-2.93 ± 0.3
GUGUAGCAAUAUUACGGUCG	-1.32 ± 0.16	-0.824 ± 0.25
CCUAAGCAAUAUUACGACAA	-3.28 ± 0.22	-2.54 ± 0.2
GGGGAGCAAUAUUACGUCGU	-2.77 ± 0.18	-1.63 ± 0.21
GUAUAGCAAUAUUACGGCCU	-1.29 ± 0.12	-0.582 ± 0.16
AGAAAGCAAUAUUACGUGUA	-2.13 ± 0.1	-0.737 ± 0.094
CAAAAGCAAUAUUACGAAGA	-2.23 ± 0.28	-1.43 ± 0.17
GACAAGCAAUAUUACGGUGU	-3.98 ± 0.13	-1.9 ± 0.11
UCAAAGCAAUAUUACGUAAC	-3.86 ± 0.21	-2.39 ± 0.27
CGGCAGCAAUAUUACGGAGU	-3.46 ± 0.27	-2.33 ± 0.2
ACAAAGCAAUAUUACGCAAU	-1.87 ± 0.078	-1.6 ± 0.092

Sequence	self-splicing fitness (ln) (30 °C)	self-splicing fitness (ln) (37 °C)
UAAUAGCAAUAUUACGUGUG	-1.6 ± 0.073	-0.917 ± 0.074
CGCCAGCAAUAUUACGAAUU	-4.49 ± 0.27	-1.46 ± 0.17
AACAAGCAAUAUUACGUCUC	-3.51 ± 0.2	-1.89 ± 0.16
UCGUAGCAAUAUUACGACCU	-2.89 ± 0.22	-0.916 ± 0.15
CUUGAGCAAUAUUACGAGGG	-3.25 ± 0.3	-2.37 ± 0.42
ACGUAGCAAUAUUACGGGGU	-4.31 ± 0.3	-2.51 ± 0.18
AUAGAGCAAUAUUACGGUCC	-2.61 ± 0.38	–
GUAAAGCAAUAUUACGUCUC	0.704 ± 0.098	0.129 ± 0.11
CGCGAGCAAUAUUACGCGCU	–	-1.67 ± 0.32
CGACAGCAAUAUUACGCGCG	-2.61 ± 0.19	-1.8 ± 0.18
CGUUAGCAAUAUUACGUACG	-2.89 ± 0.36	-2.09 ± 0.5
CCAGAGCAAUAUUACGGAGC	-2.89 ± 0.35	–
CUUAAGCAAUAUUACGGCCA	-2.95 ± 0.44	–
CCGUAGCAAUAUUACGGCAA	-3.49 ± 0.43	-2.42 ± 0.42
AAGUAGCAAUAUUACGUGGU	-3.68 ± 0.18	-1.93 ± 0.15
GACAAGCAAUAUUACGUAGC	-1.48 ± 0.069	-0.611 ± 0.076
GCCCAGCAAUAUUACGCAUC	-0.67 ± 0.075	-0.106 ± 0.092
GAUCAGCAAUAUUACGCGUA	-0.39 ± 0.095	-0.283 ± 0.14
ACAUAGCAAUAUUACGUCCG	-1.62 ± 0.11	-1.2 ± 0.14
GUUUAGCAAUAUUACGCAUG	-2.59 ± 0.18	-0.4 ± 0.18
UAAGAGCAAUAUUACGGUAG	–	-2.57 ± 0.35
CACGAGCAAUAUUACGGGUU	-3.2 ± 0.16	-2.81 ± 0.22
